System: LMWK (natural substrate of KLK1)

Sequence of PEG-Kb (pancreatic kallikrein I for injection, PEG10K-modified Kb) (chain, as listed by the source): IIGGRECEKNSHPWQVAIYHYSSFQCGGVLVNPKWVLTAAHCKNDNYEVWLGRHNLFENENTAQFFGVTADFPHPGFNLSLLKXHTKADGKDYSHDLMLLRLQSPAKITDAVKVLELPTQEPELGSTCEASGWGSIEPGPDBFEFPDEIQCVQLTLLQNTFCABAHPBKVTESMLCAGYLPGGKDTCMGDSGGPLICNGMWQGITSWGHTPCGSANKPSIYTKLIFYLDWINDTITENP
Sequence of Kb (KLK1 extracted from porcine pancreas) (chain, as listed by the source): as above

Substance | Bradykinin production µg/mg(enzyme), molar ratio of substrate to enzyme 1:1 (µg/mg(enzyme)) | Bradykinin production µg/mg(enzyme), molar ratio of substrate to enzyme 5:1 (µg/mg(enzyme)) | Bradykinin production µg/mg(enzyme), molar ratio of substrate to enzyme 10:1 (µg/mg(enzyme)) | Bradykinin production µg/mg(enzyme), molar ratio of substrate to enzyme 15:1 (µg/mg(enzyme)) | Bradykinin production µg/mg(enzyme), molar ratio of substrate to enzyme 20:1 (µg/mg(enzyme))
Kb (KLK1 extracted from porcine pancreas) | 20.9 | 90.8 | 166 | 218 | 288
PEG-Kb (pancreatic kallikrein I for injection, PEG10K-modified Kb) | 11.3 | 44.6 | 80 | 104 | 120
